Publication PMC10250233, “RPA engages telomeric G-quadruplexes more effectively than CST”

Experiments:
[1] = target: T1, RPA WT (RPA70-RPA32-RPA14) (human, UniProt P27694;P15927;P35244 1-616;1-270;1-121); experiment: fluorescence anisotropy; 200 mM KCl; FA: 200 mM NaCl, KCl or LiCl, 20 mM HEPES pH 7.4, 1 mM DTT, 22-25 C, 375 or 750 pM oligo, Kd,app +/- SEM; EMSA: 20 mM HEPES pH 7.4, 200 mM KCl, 1 nM 32P oligo; settings: protein: recombinant, tags: 6xHis N-term on RPA70 and RPA14, copies: 1;1;1, label: 5' fluorescein, linear in LiCl
T1 sequence (P27694 whole entry, chain 1 of 3): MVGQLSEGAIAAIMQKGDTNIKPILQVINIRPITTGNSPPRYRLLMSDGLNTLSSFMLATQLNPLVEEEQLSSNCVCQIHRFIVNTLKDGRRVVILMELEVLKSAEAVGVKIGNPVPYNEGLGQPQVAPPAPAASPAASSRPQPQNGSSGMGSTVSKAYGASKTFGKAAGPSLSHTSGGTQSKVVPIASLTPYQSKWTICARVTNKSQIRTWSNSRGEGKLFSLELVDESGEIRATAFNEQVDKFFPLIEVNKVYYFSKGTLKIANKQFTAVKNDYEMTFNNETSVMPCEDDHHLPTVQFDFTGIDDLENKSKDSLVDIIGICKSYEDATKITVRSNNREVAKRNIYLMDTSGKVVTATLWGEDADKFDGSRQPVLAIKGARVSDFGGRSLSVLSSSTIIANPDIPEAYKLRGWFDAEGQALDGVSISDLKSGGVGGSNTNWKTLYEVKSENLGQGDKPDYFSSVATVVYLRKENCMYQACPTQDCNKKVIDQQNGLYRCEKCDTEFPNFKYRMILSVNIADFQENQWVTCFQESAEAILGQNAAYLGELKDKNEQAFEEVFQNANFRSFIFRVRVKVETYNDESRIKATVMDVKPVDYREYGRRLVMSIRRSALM
T1 sequence (P15927 whole entry, chain 2 of 3): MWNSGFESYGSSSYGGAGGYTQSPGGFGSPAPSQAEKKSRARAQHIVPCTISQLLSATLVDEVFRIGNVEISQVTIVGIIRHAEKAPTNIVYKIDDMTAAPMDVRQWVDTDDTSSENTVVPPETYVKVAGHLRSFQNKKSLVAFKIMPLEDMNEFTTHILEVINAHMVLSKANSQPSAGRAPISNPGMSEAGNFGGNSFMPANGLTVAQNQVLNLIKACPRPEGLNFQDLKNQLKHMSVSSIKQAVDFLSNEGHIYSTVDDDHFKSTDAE
T1 sequence (P35244 whole entry, chain 3 of 3): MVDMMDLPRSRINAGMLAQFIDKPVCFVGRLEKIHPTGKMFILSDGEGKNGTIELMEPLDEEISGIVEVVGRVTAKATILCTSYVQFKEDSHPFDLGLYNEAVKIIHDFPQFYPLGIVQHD

[2] = target: T1, RPA WT (RPA70-RPA32-RPA14); experiment: fluorescence anisotropy; 200 mM NaCl; FA: 200 mM NaCl, KCl or LiCl, 20 mM HEPES pH 7.4, 1 mM DTT, 22-25 C, 375 or 750 pM oligo, Kd,app +/- SEM; EMSA: 20 mM HEPES pH 7.4, 200 mM KCl, 1 nM 32P oligo; settings: protein: recombinant, tags: 6xHis N-term on RPA70 and RPA14, copies: 1;1;1, label: 5' fluorescein, linear in LiCl
CST (CTC1-STN1-TEN1) [3] = target: T2, CST (CTC1-STN1-TEN1) (human, UniProt Q2NKJ3;Q9H668;Q86WV5 1-1217;1-368;1-123); experiment: as above; settings: protein: recombinant, tags: 2xFLAG N-term on CTC1, 6xHis N-term on STN1 and TEN1, copies: 1;1;1, label: 5' fluorescein
T2 sequence (Q2NKJ3 whole entry, chain 1 of 3): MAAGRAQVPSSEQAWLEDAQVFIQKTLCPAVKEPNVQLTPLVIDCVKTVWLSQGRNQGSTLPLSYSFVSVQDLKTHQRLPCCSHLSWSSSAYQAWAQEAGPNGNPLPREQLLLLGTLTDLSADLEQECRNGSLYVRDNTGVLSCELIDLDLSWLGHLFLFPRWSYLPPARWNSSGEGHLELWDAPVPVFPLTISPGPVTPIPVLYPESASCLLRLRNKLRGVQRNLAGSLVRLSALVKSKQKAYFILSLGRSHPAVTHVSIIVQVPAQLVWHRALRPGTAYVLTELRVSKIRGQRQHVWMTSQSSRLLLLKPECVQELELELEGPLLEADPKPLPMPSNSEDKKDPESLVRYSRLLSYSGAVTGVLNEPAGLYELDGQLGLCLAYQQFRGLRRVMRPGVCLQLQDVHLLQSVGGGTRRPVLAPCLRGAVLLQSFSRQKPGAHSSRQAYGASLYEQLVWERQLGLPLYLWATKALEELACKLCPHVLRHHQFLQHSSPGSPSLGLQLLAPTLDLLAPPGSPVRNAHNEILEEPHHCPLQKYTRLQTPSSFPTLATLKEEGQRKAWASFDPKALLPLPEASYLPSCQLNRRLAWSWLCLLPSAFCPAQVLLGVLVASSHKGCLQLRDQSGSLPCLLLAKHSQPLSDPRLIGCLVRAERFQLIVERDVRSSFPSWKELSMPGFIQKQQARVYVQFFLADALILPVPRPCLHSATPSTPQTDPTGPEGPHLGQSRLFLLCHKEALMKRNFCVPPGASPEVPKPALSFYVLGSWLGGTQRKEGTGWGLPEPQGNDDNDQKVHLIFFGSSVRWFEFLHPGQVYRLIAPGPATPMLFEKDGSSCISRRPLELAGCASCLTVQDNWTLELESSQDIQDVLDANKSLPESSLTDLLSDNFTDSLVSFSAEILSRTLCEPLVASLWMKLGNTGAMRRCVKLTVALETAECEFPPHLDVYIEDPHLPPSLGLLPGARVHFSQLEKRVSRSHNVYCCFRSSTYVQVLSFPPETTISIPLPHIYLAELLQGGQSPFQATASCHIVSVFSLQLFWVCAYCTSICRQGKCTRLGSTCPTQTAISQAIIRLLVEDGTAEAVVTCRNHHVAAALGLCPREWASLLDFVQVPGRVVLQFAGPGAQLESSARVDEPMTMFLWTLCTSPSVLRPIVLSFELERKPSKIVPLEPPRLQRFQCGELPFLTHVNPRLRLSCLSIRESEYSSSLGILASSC
T2 sequence (Q9H668 whole entry, chain 2 of 3): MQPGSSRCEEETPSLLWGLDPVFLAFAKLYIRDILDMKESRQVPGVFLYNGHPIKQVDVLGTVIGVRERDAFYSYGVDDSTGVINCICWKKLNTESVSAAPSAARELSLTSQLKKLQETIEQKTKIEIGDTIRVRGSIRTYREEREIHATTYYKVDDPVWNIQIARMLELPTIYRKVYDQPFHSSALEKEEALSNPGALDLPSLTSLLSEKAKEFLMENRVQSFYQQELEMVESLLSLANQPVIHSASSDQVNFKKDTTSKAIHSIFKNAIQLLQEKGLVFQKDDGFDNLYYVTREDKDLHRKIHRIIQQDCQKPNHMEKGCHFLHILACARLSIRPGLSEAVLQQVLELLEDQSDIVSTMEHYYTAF
T2 sequence (Q86WV5 whole entry, chain 3 of 3): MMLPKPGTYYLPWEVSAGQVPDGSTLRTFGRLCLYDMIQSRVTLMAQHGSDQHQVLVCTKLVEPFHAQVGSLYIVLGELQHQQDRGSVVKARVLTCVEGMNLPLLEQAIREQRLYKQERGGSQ

[4] = target: T1, RPA WT (RPA70-RPA32-RPA14); experiment: fluorescence anisotropy; 200 mM LiCl; FA: 200 mM NaCl, KCl or LiCl, 20 mM HEPES pH 7.4, 1 mM DTT, 22-25 C, 375 or 750 pM oligo, Kd,app +/- SEM; EMSA: 20 mM HEPES pH 7.4, 200 mM KCl, 1 nM 32P oligo; settings: protein: recombinant, tags: 6xHis N-term on RPA70 and RPA14, copies: 1;1;1, label: 5' fluorescein, linear in LiCl
CST (CTC1-STN1-TEN1) [5] = target: T2, CST (CTC1-STN1-TEN1); experiment: as above; settings: protein: recombinant, tags: 2xFLAG N-term on CTC1, 6xHis N-term on STN1 and TEN1, copies: 1;1;1, label: 5' fluorescein, linear in LiCl
CST (CTC1-STN1-TEN1) [6] = target: T2, CST (CTC1-STN1-TEN1); experiment: fluorescence anisotropy; 200 mM KCl; FA: 200 mM NaCl, KCl or LiCl, 20 mM HEPES pH 7.4, 1 mM DTT, 22-25 C, 375 or 750 pM oligo, Kd,app +/- SEM; EMSA: 20 mM HEPES pH 7.4, 200 mM KCl, 1 nM 32P oligo; settings: protein: recombinant, tags: 2xFLAG N-term on CTC1, 6xHis N-term on STN1 and TEN1, copies: 1;1;1, label: 5' fluorescein, linear in LiCl
[7] = intramolecular G4 at 5' end, 18 nt 3' tail
[8] = intramolecular G4 at 3' end, 5' tail
[9] = parallel G4 in KCl (predominantly unimolecular)

With AGGGTTAGGGTTAGGGTTAGGGTGAGTGTGAGTGTGAGTG (structured_DNA) [Tel40 5' G4] the Kd [1, 7] was 0.85 ± 0.21 nM, the Kd [2, 7] was 0.78 ± 0.08 nM and the Kd (CST (CTC1-STN1-TEN1) [3]; intramolecular G4 at 5' end, 18 nt 3' tail, linear in LiCl) was 1.47 ± 0.23 nM. For the same binder, the Kd [4, 7] was 0.82 ± 0.15 nM and the Kd (CST (CTC1-STN1-TEN1) [5]; [7]) was 1.53 ± 0.17 nM.

AGTGTGAGTTAGGGTTAGGGTTAGGGTTAGGGTGAGTGTG (structured_DNA) [Tel40 Middle G4] showed a Kd ([1]; intramolecular G4 in middle) of 0.46 ± 0.05 nM, a Kd (CST (CTC1-STN1-TEN1) [6]; intramolecular G4 in middle) of 4.4 ± 0.3 nM and a Kd ([2]; intramolecular G4 in middle) of 0.28 ± 0.03 nM. For the same binder, the Kd (CST (CTC1-STN1-TEN1) [3]; intramolecular G4 in middle, linear in LiCl) was 1.04 ± 0.21 nM, the Kd ([4]; intramolecular G4 in middle) was 0.61 ± 0.13 nM and the Kd (CST (CTC1-STN1-TEN1) [5]; intramolecular G4 in middle) was 1.94 ± 0.16 nM.

For AGTGTGAGTGTGAGTGTTAGGGTTAGGGTTAGGGTTAGGG (structured_DNA) [Tel40 3' G4], the Kd [1, 8] was 0.52 ± 0.11 nM, the Kd (CST (CTC1-STN1-TEN1) [6]; [8]) was 3.4 ± 0.5 nM and the Kd [2, 8] was 0.4 ± 0.08 nM. The Kd (CST (CTC1-STN1-TEN1) [3]; intramolecular G4 at 3' end, 5' tail, linear in LiCl) was 2.3 ± 0.4 nM, the Kd [4, 8] was 0.68 ± 0.16 nM and the Kd (CST (CTC1-STN1-TEN1) [5]; [8]) was 1.09 ± 0.1 nM.

With CCCTAACCCTAACCCTAACCCT (ssDNA) [C22] the Kd (CST (CTC1-STN1-TEN1) [3]; linear) was 184 ± 28 nM.

In the case of TTGGGTTAGGGTTAGGGTTAGGGA (structured_DNA) [2GKU], the Kd (CST (CTC1-STN1-TEN1) [5]; hybrid 1 G4 in KCl) is reported as 11.9 ± 1.2 nM.

TAGGGTTAGGGTTAGGGTTAGGGTT (structured_DNA) [2JSL] was tested, and the Kd (CST (CTC1-STN1-TEN1) [5]; hybrid 2 G4 in KCl) was 8.3 ± 0.6 nM.

Work on AGGGCTAGGGCTAGGGCTAGGG (structured_DNA) [2KM3] yielded a Kd (CST (CTC1-STN1-TEN1) [5]; antiparallel G4 in KCl) of 4.5 ± 0.3 nM.

For GGGTAGGGAGCGGGAGAGGG (structured_DNA) [6GZN], the Kd (CST (CTC1-STN1-TEN1) [5]; antiparallel G4 in KCl) was 1.1 ± 0.3 nM.

TAGGGAGGGTAGGGAGGGT (structured_DNA) [2LBY] gave a Kd (CST (CTC1-STN1-TEN1) [6]; parallel G4 in KCl) of 26.5 ± 1.5 nM and a Kd (CST (CTC1-STN1-TEN1) [5]; parallel G4 in KCl) of 11.5 ± 1.3 nM.

Work on CGGGGCGGGCCTTGGGCGGGGT (structured_DNA) [2M27] yielded a Kd (CST (CTC1-STN1-TEN1) [6]; [9]) of 13.3 ± 0.9 nM and a Kd (CST (CTC1-STN1-TEN1) [5]; [9]) of 10.8 ± 0.2 nM.
